Assays:
[1] = target: GAL4 activation domain-Tsg101 fusion protein (wild-type human Tsg101) (yeast; human) (UniProt Q99816); assay: yeast 2-hybrid, β-galactosidase; p1-p6 variant with Tsg101
[2] = target: GAL4 DNA-binding domain-p1-p6 fusion protein (yeast; human immunodeficiency virus type 1 (HIV-1)) (UniProt P04386); assay: yeast 2-hybrid, β-galactosidase; Tsg101 variant with p1-p6

Chain of GAL4 activation domain-Tsg101 fusion protein (wild-type human Tsg101) (yeast; human) (Q99816 whole entry, the tested form may be a part): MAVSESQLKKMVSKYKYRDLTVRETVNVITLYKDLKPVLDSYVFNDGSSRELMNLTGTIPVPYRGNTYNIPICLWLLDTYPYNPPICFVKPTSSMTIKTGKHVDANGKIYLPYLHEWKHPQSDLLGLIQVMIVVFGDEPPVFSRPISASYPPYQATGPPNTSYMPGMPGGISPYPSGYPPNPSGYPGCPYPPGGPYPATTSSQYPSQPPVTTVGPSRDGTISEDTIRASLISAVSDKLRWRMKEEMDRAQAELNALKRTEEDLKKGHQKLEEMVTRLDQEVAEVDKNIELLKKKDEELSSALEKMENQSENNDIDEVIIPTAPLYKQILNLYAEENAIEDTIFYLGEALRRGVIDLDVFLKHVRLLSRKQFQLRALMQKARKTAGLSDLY

## GAL4 DNA-binding domain-p1-p6 with the (LXX)4 repeat motif deleted (from UniProt P04386 1-147; P03347 435-512)
[1]
  β-galactosidase activity, % of the wild-type level (% of wild-type): 55

## GAL4 DNA-binding domain-p1-p6 with the first PTAPP motif deleted (from UniProt P04386 1-147; P03347 435-512)
[1]
  β-galactosidase activity, % of wild-type protein binding (% of wild-type): 50

## GAL4 DNA-binding domain-p1-p6 with the first PTAPP motif deleted and Ala for Pro7 in the second motif (from UniProt P04386 1-147; P03347 435-512)
[1]
  β-galactosidase activity, % of wild-type (% of wild-type): 25

## GAL4 DNA-binding domain-p1-p6 with the second PTAPP motif deleted (from UniProt P04386 1-147; P03347 435-512)
[1]
  β-galactosidase activity, % of wild-type protein binding (% of wild-type): 25

## GAL4 activation domain-Tsg101 Y110W (from UniProt Q99816 1-390)
[2]
  p6 interaction, % of wild-type (% of wild-type): 31

## GAL4 activation domain-Tsg101 Y113V (from UniProt Q99816 1-390)
[2]
  binding, % of wild-type (% of wild-type): 33

## GAL4 activation domain-Tsg101 with Ala for Thr-Tyr-Asn (67-69) (from UniProt Q99816 1-390)
[2]
  binding, % of the wild-type level (% of wild-type): 5

Source: patent publication US7494767
